Molecular target: mouse GLP-1R (mouse) (UniProt O35659)
Assay: cell-based or functional assay

Chain of mouse GLP-1R (mouse) (O35659 22-463): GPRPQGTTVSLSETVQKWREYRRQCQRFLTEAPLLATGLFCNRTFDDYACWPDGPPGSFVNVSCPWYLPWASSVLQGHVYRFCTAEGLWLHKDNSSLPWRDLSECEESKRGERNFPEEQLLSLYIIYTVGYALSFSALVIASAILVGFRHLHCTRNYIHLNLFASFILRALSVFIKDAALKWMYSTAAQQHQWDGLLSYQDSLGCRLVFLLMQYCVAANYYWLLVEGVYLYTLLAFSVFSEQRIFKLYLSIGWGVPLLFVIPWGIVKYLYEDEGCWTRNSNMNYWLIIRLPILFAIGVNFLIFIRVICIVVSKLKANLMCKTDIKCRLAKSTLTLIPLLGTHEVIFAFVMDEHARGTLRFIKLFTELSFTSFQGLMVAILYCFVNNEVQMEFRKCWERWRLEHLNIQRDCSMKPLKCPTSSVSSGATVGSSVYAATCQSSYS

Substance	mGLP-1R cAMP (-alb) % Emax [%]	mGLP-1R β-arrestin-2 % Emax [%]	cAMP accumulation EC50 [pM]	β-arrestin-2 recruitment [%]
Liraglutide (peptide)	92	80.7		
Human GLP-1 (7-36) (from UniProt P01275 21-180) (ligand)			3	99

From patent publication US20240366728A1, “Treatment of Diabetes Mellitus” (Carmot Therapeutics Inc., priority 2023, published 2024)
